Measurements: US20180105832A1 (FRAUNHOFER GESELLSCHAFT ZUR FOERDERUNG DER ANGEWANDTEN …, published 2018)

Molecular target: T1, Pepscan peptide 3 of CSP (amino acids 25-37) (Aspergillus flavus)
T1 peptide: YDDPDCDPGFTCR
Experiment: Pepscan-ELISA

B1: Aspergillus-specific monoclonal antibody AP10 (mAbAP10) (antibody, V domains shown)
VH: DVQLVESGGGLVQPGGSRKLSCAASGFTFSSFGMHWVRQAPEKGLEWVAYINGGSGTIYYADTVKGRFTISRDNPRNTLFLQMETTSLRSEDTAMYYCARGGDDPFAYWGQGTLVTV
VL: IQMTQSPSSLSAYLGDKVTITCMASQDINNHIAWYQLKPGKGPRLLIHYTSTLHPGIPSRFSGSGSGRDYSFSISDLEPEDIATYYCLQYDNLRTFGGGTKLEIK
notes: also called CSP-specific mAbAP10
binding efficiency relative to peptide 4: 2 fold
